Results on two molecules are retold here after publication PMC3516549 (PLoS Pathogens, 2012).

As a reminder, the Kd is the concentration at which binding is half-saturated. The term koff denotes the rate constant with which the complex falls apart. The kon is a measure of how fast the partners come together.

For experiment [1], the target named is recombinant trimerized His-tagged soluble HA of A/South Carolina/1/18 (1918 wt) (Influenza A virus A/South …, UniProt Q9WFX3, strain). Put plainly: BLI; […]; 1:1 binding model, […]. As to conditions: both partners purified. (BLI is a label-free optical method that tracks binding on a fibre tip over time.)
The target in experiment [2] is recombinant trimerized His-tagged soluble HA, A/South Carolina/1/18 (1918 wt) (Influenza A virus A/South …, UniProt Q9WFX3, strain). Put plainly: BLI. As to conditions: both partners purified.

“And” between values parts separate entries of the source, which are not always exact repeats. Equal values may be shown once.

B1: 1I20 Fab (Fab, V domains shown)
VH: EVQLVESGGGVVQPGGSLRLSCIASAFNLGIFGMHWVRQAPGKGLEWVAFIRYDGGKTFYADSVKGRFTISRDNSKNTLYLQMNSLRTEDTALYYCARDATADYYGPGSYPNWLDPWGQGTLVTVSS
VL: DIRLTQSPATLSVSPGERATLSCRASHSVSRNLAWYQQKPGRAPRLLVYDTSSRATGIPARFSGSGSGTEFTLTISSLQSEDFAVYYCQQYNNWPRTFGQGTKVDIK
notes: also called mAb 1I20; source: HEK 293F, transiently co-transfected, purified (HiTrap Protein G)
On to B1, for which, in experiment [1], the Kd was 3.22 nM and 3.46 nM; the koff was 0.000375 s⁻¹ and 0.000366 s⁻¹; the kon is 116000 M⁻¹ s⁻¹ and 106000 M⁻¹ s⁻¹.

B2: 1I20 Fab (Fab, V domains shown)
VH: B1 VH
VL: B1 VL
notes: also called mAb 1I20
For B2, in experiment [2], the Kd is 3.3 nM.
